The domain aggregation screens of Martell et al. (2025)

Assay: soluble fraction after stress (log2 fold change); higher = more stays soluble; pooled small domains, quantitative proteomics
Details: stress: 50 degC
In short: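 Quantitative proteomics served as the high-throughput read-out for pooled custom libraries of small protein domains. Each was stressed at 50°C. Aggregation propensity is expressed as the base-two log fold change in soluble protein after stress. A higher value means a larger share of the protein remains in solution.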

Row | Sequence | soluble fraction (log2)
1 | HMEIYELTDQEQRVLEFIGEGMTNREIAKNMFLAEKTVKNYVSSLLRKLGLERRTQAAAMAVRLSV | -0.0994
2 | HMEKAYVWTDTRTFDVQNYIGKKKSEVKNDQYGFEFLGEGDYVIDQLPRVGEQIEEGQKVKIMLGNQQEI | 0.0468
3 | HMEKDKGTILKEARIKKGLTQEQLANNINYTRQYISKWENNISLPKDIQTLKKISNLLSIPLKELLPEDYL | -0.109
4 | HMEKEFLFNGGKVVMNYEADRIQIMHDTKPGQDVITLMKKNGFKWSPFNKAWQRQITANAIYTTKHLINQ | -1.5
5 | HMEKGIVSNKTDKGYGFIRSSTGESIFVHINNVGKEAYEQLAKGSRVLFDYEVTDRGKRATKVMLEPSES | 0.0488
6 | HMEKGLQYRRTDRAIMNAFIKLVNQGSFEKLTVQEILDEALVSRNTFYAHYRDIYDLMDALSN | -1.55
7 | HMEKIDEDIMDVLKKKAEVSGISLGVLKSIYEKAVKQYKLGHEIGQVKEQYAMQKVNTHLLENK | 0.194
8 | HMEKIDYLSIGHRLRAYRIASSLKAEDVAESLGISRAAVYRLEKGEIVKIETLDNLARLLNTSLSSLLG | -2.94
9 | HMEKIKNLTVTEFNLIANKNPSGSYDRITREALLHIIHKLESSYEAHTDLERKLFYKFRKAKFNAL | -1.91
10 | HMEKIYLISDAAKQVNVEAHVLRYWEEELDIPAKRNELGHRYYTQEDIETFRKVKELKAQGIQLKGIKNIL | 0.123
11 | HMEKLLTTRQSQIFELAKRKGYWNIPREISITQLAQLTGSSKSTISVMLHAIESKIVDTFYDEI | -3.2
12 | HMEKLNERLLYLRKNANLTQQQLADKLHISNKTISQWETGRTLPDIVMLVRLAEIYDMKLDELLNQ | -0.29
13 | HMEKMLENIDLKAAVEALPEREKKVILLRYYRGMTQDAAAKVMKVSQVQISRIEKRAIEILREKL | -1.52
14 | HMEKNKERIAFLKKRLEMYYEAEEKILQGQSYTIGSRTLTRTSLANVQSKIKELESEISALETRGN | -0.57
15 | HMEKRIIMLEELKKQVYEANMELPRRGLITYTWGNVSGIDRESGNFVIKPSGVDYDKLKPEDMVVMDL | -0.0887
16 | HMEKRRQEIVELVKRESEISFAELKQHFPEVSEVTLRKDLKYLDSTLQIIRIHGGAKSLPAAI | -0.362
17 | HMEKTTTLFDETTNPGIIYIGKAMPTGSAISEAAAVWAIKTIDTTTDTEIKWADGVTTYTKVWNNRASYSY | -1.76
18 | HMEKVDAISQSILDVLKKNNGYLAVTDKSDPDEIYGLFQISKKTFKKAIGSLYRDRLISIEEEGIRLR | 0.116
19 | HMEKVTAPMPGVINSIVKNVGDTVKRGDVVLILEAMKMENEIVAPKEGKIASINVAKGASVNAGDVLFSI | 0.294
20 | HMEKVTPEMIAEYNALAKKYNSNPEVVFKKKEIQRLKYIYSLMSEKQKETAEVFPNIPPPPPT | -0.234
21 | HMEKYNIIVDNEDNFRLDKIIALNMKDLSRTMIQEMINRGLVSVNGKITKASYKTKLNDQIEIMIED | -0.28
22 | HMELAALKILNSPIGKIAIGTSENGLVKLDILTSGQTRAEFSDLPKAHKLALDAADQLAAYF | 0.0579
23 | HMELADNFAKLILTARESKGWTQAQLGQRMAETINVIKSAESGKPPADSVIRKFEMILGIELM | -1.96
24 | HMELDFLRLQIITGIHSGRLSNNEILMMYDTYSQKGGNSYVSRIVNDYVDENNIKEEGKRNARK | -0.346
25 | HMELDREALSDGLRRLSQLLAEDDIESRTLFRELAPGLKEQLGDDAVEKLAGHISRYEFEQAGALLATSG | -0.0341

Row | Sequence | soluble fraction (log2)
26 | HMELIELTVTEEFEMARLDQFLAGHLTQSRTYIQKLIKAGQITINGNLITRVKVPVHYGDFILINIPDPE | -3.54
27 | HMELKFIGEAVNNPKRPLIAILGGAKVSDKIGVIENLLTKADKILIGGAMMFTFLKAEGKNIGTSLVED | 0.0616
28 | HMELLEVSVIIREADSTGWSAARQGMEQAAADLGAELRFLTLSQSNSAEEQRSLLAREVEGGADAVVLV | -0.142
29 | HMELNEMEAWSLVSKALRNGTYGAVEEFSRLPPTVQEAVGNPDNLRNWATSDYKAIETVIQSNFIKTY | -0.12
30 | HMELNILELKSKERKISLEDHLYIKSFNFDNETNEYFYRLAFNSSKDLKNFKATINNDKTISIINFEI | -3.16
31 | HMELPVNSIRVPDVVGLSLREAMQAMTDAGVPWQSVQAKGVGFVSRQSPEAGTVTQLRRVRLELKLF | -2.58
32 | HMELSPVDLGERLKIARETANFTQDAAAKAVGIARTTLVSIEKGQRTARLDEIQALSRFYGVSANALLR | -0.499
33 | HMELTDRQKQIIEIVKKQQPISGEKIASILGFARATLRPDFSLLTMSGILQAKPKVGYLINEE | -0.152
34 | HMELVEVGDLTGLTVEQAENVLKNSNISISIDKYDESDKYEKDQIISQNPQNKKVKKGTAIHVVLSNGP | 0.0285
35 | HMEMKMGHIISKLRYESGYSQVELAEKIGITKGAVGMYETDKRKPDYDTLIKLADLFNVSTDYLLS | 0.0501
36 | HMEMNDFETLRDMYLTGKIWNVGDIVEANGVRGKVIRKGTNYLSFVDEDNKVHKAWLYDIEE | -0.197
37 | HMEMSLGEKLKQARLTKNFSQEYMAEVLQISQKTYSNFENNKTKPDFSQIEEISKVLETSILEFLT | -0.152
38 | HMEMTGAHLRKKIRAKGFTFQQIADAIGESKQNLSQILSTNNIKTGTLERIAAAMGESVSYF | -0.191
39 | HMENDYTQAQFVQDLDSGVVREVIIIPNREAPTGYARVVFGDVVRELYATDIREVEALAREHGYEPTVED | 0.209
40 | HMENFDNIFDQRLMPSLFIIRNINQAIENNNNNKFLLNSTISMKDKHWIEIHPHHLKLIISGYQT | -0.238
41 | HMENIEVDFGVGDTVSVIGGAWKDTVGVVQAMNPNKQSLTINVELFGRETPVEISFTDVQKM | -0.0126
42 | HMENINIRNMGIRAVEAAIISLSPDQRTFTWGATNKKLVTVPYEENPYSALAAFFKTDDGIEIYDAIEKRL | -0.892
43 | HMENNNIAFSKFLEEVDSGRVVQVEIQGNNISGTLSDGSKFKTYSPNYPDLVSKLSEKNVSIIASPV | 0.115
44 | HMENPLVEVVVPVLNEERILKANIETLHHFLRTQPGFNFRITIADNGSTDKTQAIANDLTNSHAVIRV | -0.12
45 | HMENPMIEQLKQFIEAQGLTQGQLAAKLGVSTATVNQYLQGKYKGDTAALDAKAAQLMARSREK | 0.103
46 | HMENRILIPTAENIGERLDRYISSELDAPRSQVQIWIDSGLVAVSGGLKPKNYRLREGDEIEVTIPDPV | 0.0407
47 | HMENRLREVRDEIATRHGILPTVFINDRVLMNIHSKKPKDVSQLWQVDGISDEFIMKYGPEFIAEYKKKAK | 0.0216
48 | HMENRREYQKAIDYLSDQIRAGTLTVGSRLPTERAIAEALGISRNSTREALRTMENMGMIESKQGSGHYLT | -0.00154
49 | HMENTELIELRKKRNLSQSQLAELLDLTRNQIANYESGRRIPDQETKQIIAGFFEMPAEEIFAG | 0.0435
50 | HMENTFNENLRRIRKEKKITQEQLAEFVGVSPQAVSKWEMNSFPDASLLPKIAEKLEVSIDELFGLK | 0.000882

Row | Sequence | soluble fraction (log2)
51 | HMENTVVMPNLLGKTMTEAKIELKDLSISITLKGSENSSQYAAGQIISQSVDSGTRVAVGSSVEVTIAGS | 0.0377
52 | HMENVIYGINGPVVTVRNSRSFSMMEMVFVGNERLVGEVIGITDKITTIQVYEETTGLRPGEPVYGTGSPM | -3.97
53 | HMENVRKTEWVTISNDKSQTRTTVYFESGNQKLDKHPQIQGFEYQRTYVEGGVKYYLFVEKGTKLDE | -0.166
54 | HMENYGEAITYIHGMIEDSSEKMLAASKALKVNANTLIKFMKDPYSVAAHIRDRIVENLANLEKAVKAI | 0.075
55 | HMENYYMPVVAGQSEQDAKSMLNAMKLSLSIQVQEQESDSVAKGLAIGTSPAAGSQIRKGSSVILYISKGA | -0.0609
56 | HMEPALYRLFMAHPELNASAVARRLGIAQSLLAQYISGSKKPSPERERMILTEIHKIGEELATAS | -0.65
57 | HMEPAPPPAAPPADPELQKRIDKLVEYIGKNGPEFEAVIRDKQHDNPDYAFVFGGEGHAYYRYLLWLLPRP | 0.00294
58 | HMEPELLTTKQVASVMNIGEERARAILLSRGVQPVSLPWGKERKTLRWSRRAVMTVIDTLHAEAQAKAGV | -0.582
59 | HMEPLPDIPRGTRVSHQTAPADGDMPERRETGWTMTEPIRAQDGLAYVGVSVYGRGVVMLPVNSLSII | -0.319
60 | HMEPSAQEIANKLLGHVKSLGLPITGLSISYNSTSDLATVRGQVQSQADREKIILAVGNVDHVAKVDDQLT | -0.0356
61 | HMEPSQEFSLADMVAYDLTGYPKSAALRAAVGASLGIGYGNAKQFVYRLNHYGISKDDFHRAAQEALDGL | -0.87
62 | HMEPTAEQLKAIRQFASVNGRSWKSELRYLWETGAYHRAALGGADPGYLQQVRNQFGPGWLRAFKISK | -0.852
63 | HMEPTPREIVVQQLGYRGLEVLGNAEYQFPKETQIIILKLAELISSGSVTETLEGGKLLALFRGVGINVR | -1.59
64 | HMEPVQPVMYSEFIESVERGEVVEATIQGDKIIATDRSGNRYTVVGSAKDPQLVGQLLERNVAFKFVEE | 0.00245
65 | HMEQAMIVILKENPDRRQLEFLTGWLQKQQIGIHISEGAHQTVLGLVGDATRLDIDMLKQMEIVEDVKRVQ | -0.0829
66 | HMEQGDTQQEIREKILNLLADGERHMITELKNIRTDQPIDDDKIVGKTLKTLLDEEEVYMDGSYIQLNG | 0.259
67 | HMEQIGSIIKDIRKKNNLTQNEFASILGVTFQAVSKWENDKSIPDITILKDISNKFNVDLNYLISG | -0.0472
68 | HMEQISVPIFTNDELVTFARSYSGELGYKIDDMAVLALYNRISNIQRLDQATTLTEVKDIVDEAVAKSE | -0.0661
69 | HMEQLESAVASRTLIGQAQGVIMERYGLSAPNAFSVLSRISQDSNTKLAEVAQQIVATRRIPG | -0.188
70 | HMEQLNKNIKFDNFLESLNFINKVSEVAEEENHHPDLKFGWGYADITIFTHAIKGLSEGDFVLAAKIDVI | 0.269
71 | HMEQMSLISKKKGERIDKFLGENLGDLSRSYIQKLLKDGLILVNGKKVKANYKLNEGDQIDVEVPDP | 0.303
72 | HMEQMSPYPNPSKGKIQFHNQEPMDIKVFNSLGQIVFEQRILSRAILDLSRLSPGQYIVQAGEQKNIWIK | -0.699
73 | HMEQPPVPSVSITAALGSAVARRLAPHGFQKMPDLVDAYRAGKLAQISGIGGTTLDLIREWLTANARQQ | 0.0154
74 | HMEQQEFIVPHDSEGQRLDLFLVSVLGTHSRSQIRKLIVNGHVKLENRAPRPNLPVRAGESVVVSMPEPT | 0.121
75 | HMEQQSIYLENRERMTINQVIDVDAFDEETLWANLKEGAVEISGSGLHIEKLDLAEGVLIVSGIIRAFAYV | -0.647
